Source: patent publication US20200247894A1 (Regeneron, published 2020)
Changes are numbered by the printed parent chain. Values belong to the binder of their own block, whether it stands above or below them.

Legend:
[1] = biological target: T1, human IL-2Rγ endogenously expressed on NK-92 and Jurkat cells (human, UniProt P31785 23-369); assay: flow cytometry, 10 ug/ml antibody, Jurkat cells (endogenous human IL-2Rg)
T1 construct: whole, on cells; on cells it stands with the other receptor subunits of the cell line; also called IL-2Rg; CD132
T1 sequence (looked up): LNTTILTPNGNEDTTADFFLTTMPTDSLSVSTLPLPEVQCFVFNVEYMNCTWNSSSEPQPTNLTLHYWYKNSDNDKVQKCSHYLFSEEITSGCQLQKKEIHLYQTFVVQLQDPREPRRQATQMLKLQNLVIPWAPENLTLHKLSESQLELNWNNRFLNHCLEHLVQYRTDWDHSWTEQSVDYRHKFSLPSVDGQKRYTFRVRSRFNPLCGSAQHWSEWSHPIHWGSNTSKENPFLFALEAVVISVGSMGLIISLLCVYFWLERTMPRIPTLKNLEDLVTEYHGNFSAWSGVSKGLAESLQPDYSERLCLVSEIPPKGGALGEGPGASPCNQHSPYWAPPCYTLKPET
Protocol: (§1) For flow cytometry analyses, the cells were pre-incubated with mouse IgG at 100 μg/ml for 15 minutes at room temperature (RT) to block the binding of the antibodies to Fc receptors. […] Cells were washed, fixed using BD CytoFix™ (BD biosciences, #554655) and analyzed on an IQue® (Intellicyt®) Flow Cytometer or Accuri Flow cytometer (BD). […] The results were analyzed using ForeCyt® (IntelliCyt®) software to determine the geometric means of fluorescence (MFI) for viable cells. Binding ratios were calculated by normalizing the MFI of the test sample by the MFI of the unstained sample.

[2] = biological target: T2, mouse IL-2Rγ endogenously expressed on MC/9 cells (mouse, UniProt P34902 23-369); assay: flow cytometry, 10 ug/ml antibody, MC/9 cells (endogenous mouse IL-2Rg)
T2 construct: whole, on cells
T2 sequence (looked up): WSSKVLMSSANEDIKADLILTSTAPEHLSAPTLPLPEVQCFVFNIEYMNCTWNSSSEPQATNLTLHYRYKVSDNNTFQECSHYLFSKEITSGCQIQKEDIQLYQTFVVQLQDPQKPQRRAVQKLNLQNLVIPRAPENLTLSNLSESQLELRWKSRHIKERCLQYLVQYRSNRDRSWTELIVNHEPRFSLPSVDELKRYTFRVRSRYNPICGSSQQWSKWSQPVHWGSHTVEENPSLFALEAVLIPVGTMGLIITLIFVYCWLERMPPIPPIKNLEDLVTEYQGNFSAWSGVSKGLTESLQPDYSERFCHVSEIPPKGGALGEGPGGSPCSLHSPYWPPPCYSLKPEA
Protocol: as §1

[3] = biological target: T1, human IL-2Rγ endogenously expressed on …; assay: flow cytometry, 10 ug/ml antibody, NK-92 cells (endogenous human IL-2Rg)
Protocol: as §1

Binding Ratio (Sample over unstained MFIs) [1]: 6 | Raw MFI [1]: 488 MFI | Binding Ratio (Sample over unstained MFIs) [2]: 1 | Raw MFI [2]: 185 MFI | Binding Ratio (Sample over unstained MFIs) [3]: 32 | Raw MFI [3]: 4720 MFI
B1: H4H12886P (antibody, human IgG4 S228P, kappa, V domains shown)
VH: EVQLVESGGGLVKPGGSLRLSCAASGFTFSTAWMSWVRQSPGRGLEWVGRMKSKTDGGTTFYAAPVKGRFTISRDDSKNTLYLQMNSLKTEDTAVYYCTTGLVPAFYKYYGVDVWGQGTTVTVSS
VL: DIQMTQSPSSLSASVGDRITITCQASQDITNYLNWYQQKPGKAPNLLIYDASNLVTGVPSRFSGSGSGTDFTFTILSLQPEDIATYYCQQYDSLLTFGPGTKVDIKR
notes: fully human anti-IL2Rg antibody, human IgG4

Binding Ratio (Sample over unstained MFIs) [1]: 2 | Raw MFI [1]: 179 MFI | Binding Ratio (Sample over unstained MFIs) [2]: 1 | Raw MFI [2]: 175 MFI | Binding Ratio (Sample over unstained MFIs) [3]: 12 | Raw MFI [3]: 1850 MFI
B2: H4H12926P2 (antibody, human IgG4 S228P, kappa, V domains shown)
VH: QVQLQQSGPGLVKPSQTLSLTCAISGDSVSSNIAAWNWIRLSPSRGLEWLGRTFFRSTWFYDYSLSVKGRITINPDTSKNQFSLHLNSVTPEDAAVYYCARTGRRWSLDYWGQGTLVTVSS
VL: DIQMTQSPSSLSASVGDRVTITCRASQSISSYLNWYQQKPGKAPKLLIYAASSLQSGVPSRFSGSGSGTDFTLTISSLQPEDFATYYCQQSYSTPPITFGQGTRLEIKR
notes: as for B1

Binding Ratio (Sample over unstained MFIs) [1]: 19 | Raw MFI [1]: 1660 MFI | Binding Ratio (Sample over unstained MFIs) [2]: 1 | Raw MFI [2]: 91 MFI | Binding Ratio (Sample over unstained MFIs) [3]: 94 | Raw MFI [3]: 14100 MFI
B3: H4H12889P (antibody, human IgG4 S228P, kappa, V domains shown)
VH: EVQLVESGGGLVQPGGSLRLSCAASGFIFSSYEMHWVRQAPGKGLEWISYISSSGTTIYYADSVKGRFTISRDNAKNSLYLHMNSLRAEDTAVYYCTRARITGTFDVFDIWGQGTMVTVSS
VL: DIQMTQSPSSLSASVGDRVTITCRASQSISSYLNWYQQKPGKAPKLLIFAASNLQSGVPSRFSGSRSGTDFTLTISSLQPEDFATYYCQQNYNIPYTFGQGTKLEIKR
notes: fully human anti-IL2Rg antibody, human IgG4; also called REGN7257

Binding Ratio (Sample over unstained MFIs) [1]: 18 | Raw MFI [1]: 1620 MFI | Binding Ratio (Sample over unstained MFIs) [2]: 1 | Raw MFI [2]: 184 MFI | Binding Ratio (Sample over unstained MFIs) [3]: 92 | Raw MFI [3]: 13700 MFI
B4: H4H12871P (antibody, human IgG4 S228P, kappa, V domains shown)
VH: QVQLQESGPGLVKPSQTLSLTCTVSGGSITSGGYYWSWIRQYPGQGLEWIGYIYYSGKTYYNPSFTSRITISVDTSKKQFSLKMSSVTAADTAVYYCARAGFTSSNGWFDPWGQGTLVTVSS
VL: DIQMTQSPSSLSASVGDRVTITCRASQNIRSYLNWYQQKPGKAPKLLIYSASSLQSGVPSRFSGSGSGTDFTLTISSLQPEDFPTYYCQQTYSSPWTFGPGTKVEIKR
notes: fully human anti-IL2Rg antibody, human IgG4; also called REGN9434

Binding Ratio (Sample over unstained MFIs) [1]: 18 | Raw MFI [1]: 1570 MFI | Binding Ratio (Sample over unstained MFIs) [2]: 1 | Raw MFI [2]: 187 MFI | Binding Ratio (Sample over unstained MFIs) [3]: 84 | Raw MFI [3]: 12500 MFI
B5: H4H12922P2 (antibody, human IgG4 S228P, kappa, V domains shown)
VH: QVQLVESGGGVVKPGGSLRLSCAASGFTFSNSGIHWVRQAPGKGLEWVALISYAGSNKYYADSVKGRFTISRDNSKNTLSLQMNSLRAEDTAVYYCAKEVWTGTYDSFDMWGRGTMVTVSS
VL: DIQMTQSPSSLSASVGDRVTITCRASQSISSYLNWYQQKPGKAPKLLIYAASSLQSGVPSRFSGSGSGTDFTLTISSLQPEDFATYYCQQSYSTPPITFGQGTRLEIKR
notes: fully human anti-IL2Rg antibody, human IgG4; also called REGN7256

Binding Ratio (Sample over unstained MFIs) [1]: 6 | Raw MFI [1]: 507 MFI | Binding Ratio (Sample over unstained MFIs) [2]: 1 | Raw MFI [2]: 202 MFI | Binding Ratio (Sample over unstained MFIs) [3]: 44 | Raw MFI [3]: 6580 MFI
B6: H4H12874P (antibody, human IgG4 S228P, kappa, V domains shown)
VH: QVQLVESGGGVVQPGRSLRLSCAASGFNFRNFGMHWVRQAPGKGLEWVAGILYDGSSKYYADSVKDRFTISRDNSKNTLFLQMNSLRAEDTAMYYCAKEEDTAMVPFDSWGPGTLVTVSS
VL: DIQLTQSPSFLSASVGDRVTITCWASQGISSYLAWYQQKPGKAPTLLIYAASTLQSGVPSRFSGSGSGTEFTLTISSLQPEDFASYYCQQLKSYPLTFGGGTKVEIKR
notes: as for B1

Binding Ratio (Sample over unstained MFIs) [1]: 1 | Raw MFI [1]: 110 MFI | Binding Ratio (Sample over unstained MFIs) [2]: 1 | Raw MFI [2]: 128 MFI | Binding Ratio (Sample over unstained MFIs) [3]: 28 | Raw MFI [3]: 4200 MFI
B7: H4H12900P (antibody, human IgG4 S228P, kappa, V domains shown)
VH: QVQLVESGGGLVKPGGSLRLSCEASGFTFNDFYMTWIRQAPGKGLEWIAYISKSGDKMRYADSVKGRFSTSRDNAKNSLSLQMNSLRAEDTAVYYCARFYGDIWGQGTLVTVSS
VL: B6 VL with G28D, Y32F, A34V, T45N, T53A, Q89E, K92N, S93N, L96W, G100Q
notes: as for B1

Binding Ratio (Sample over unstained MFIs) [1]: 1 | Raw MFI [1]: 114 MFI | Binding Ratio (Sample over unstained MFIs) [2]: 1 | Raw MFI [2]: 167 MFI | Binding Ratio (Sample over unstained MFIs) [3]: 18 | Raw MFI [3]: 2670 MFI
B8: H4H12899P (antibody, human IgG4 S228P, kappa, V domains shown)
VH: QVQLVESGGDLVKPGGSLRLSCATSGFTFSDFYMTWIRQAPGKGLEWISYISNSGSIVKYADSVKGRFTISRDNAKNSLYLQMNSLRAEDTAIYYCARFYGDRWGQGTLVTVSS
VL: B6 VL with S31T, Y32F, T45K, E70D, S85T, Y87H, K92N, S93N, L96W, G100Q
notes: as for B1

Binding Ratio (Sample over unstained MFIs) [1]: 1 | Raw MFI [1]: 104 MFI | Binding Ratio (Sample over unstained MFIs) [2]: 1 | Raw MFI [2]: 192 MFI | Binding Ratio (Sample over unstained MFIs) [3]: 2 | Raw MFI [3]: 231 MFI
B9: H4H12924P2 (antibody, human IgG4 S228P, kappa, V domains shown)
VH: EVQLVESGGGLVQPGRSLRLSCAASGFTLEDYAMHWVRQAPGKGLEWVSGISWNRGSTGYADSVKGRFTISRDNAKNSLYLQMTSLRAEDTALYYCAKGFYSMDVWGQGTTVTVSS
VL: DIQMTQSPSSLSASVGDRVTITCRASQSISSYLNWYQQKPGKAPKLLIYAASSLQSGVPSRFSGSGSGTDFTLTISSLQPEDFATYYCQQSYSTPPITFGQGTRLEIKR
notes: as for B1

Binding Ratio (Sample over unstained MFIs) [1]: 5 | Raw MFI [1]: 472 MFI | Binding Ratio (Sample over unstained MFIs) [2]: 1 | Raw MFI [2]: 178 MFI | Binding Ratio (Sample over unstained MFIs) [3]: 33 | Raw MFI [3]: 4910 MFI
B10: H4H12913P2 (antibody, human IgG4 S228P, kappa, V domains shown)
VH: EVQLVESGGGVVRPGGSLRLSCAASGFTFDDYGMSWVRQAPGKGLEWISSINRNGGSADYADSVKGRFTISRDNAKNSLFLQMSSLRAEDTALYHCASGEFRFDYWGQGTLVTVSS
VL: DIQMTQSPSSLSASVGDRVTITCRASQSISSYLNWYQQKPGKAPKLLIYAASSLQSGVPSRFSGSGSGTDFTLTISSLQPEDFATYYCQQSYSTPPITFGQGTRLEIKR
notes: as for B1

Binding Ratio (Sample over unstained MFIs) [1]: 4 | Raw MFI [1]: 315 MFI | Binding Ratio (Sample over unstained MFIs) [2]: 1 | Raw MFI [2]: 191 MFI | Binding Ratio (Sample over unstained MFIs) [3]: 23 | Raw MFI [3]: 3490 MFI
B11: H4H12927P2 (antibody, human IgG4 S228P, kappa, V domains shown)
VH: EVQLVESGGGVVRPGGSLRLSCATSGFTFDDYGMSWVRQVPGKGLEWVSSVNRNGGTTDYADSVKGRFTISRDNAKRSLFLQMNSLRAEDTALYHCATGELFFDYWGQGTLVTVSS
VL: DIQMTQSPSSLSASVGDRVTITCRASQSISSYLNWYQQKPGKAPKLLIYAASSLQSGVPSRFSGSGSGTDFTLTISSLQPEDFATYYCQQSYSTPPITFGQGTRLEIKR
notes: as for B1

Binding Ratio (Sample over unstained MFIs) [1]: 1 | Raw MFI [1]: 86 MFI | Binding Ratio (Sample over unstained MFIs) [2]: 1 | Raw MFI [2]: 154 MFI | Binding Ratio (Sample over unstained MFIs) [3]: 17 | Raw MFI [3]: 2540 MFI
B12: H4H12908P (antibody, human IgG4 S228P, kappa, V domains shown)
VH: EVQLVESGGRLVQPGGSLRLSCEASGFTFSNYGMTWVRQAPGKGLEWVSVISGSDNRKYYAESVKGRFTISRDNSKNTLYLQMNSLRAEDTAVYYCAKLGYSRSSKDFYYGMDVWGQGTTVTVSS
VL: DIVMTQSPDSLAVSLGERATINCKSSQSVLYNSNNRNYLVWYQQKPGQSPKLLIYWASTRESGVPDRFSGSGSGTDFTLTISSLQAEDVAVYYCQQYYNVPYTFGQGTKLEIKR
notes: as for B1

Binding Ratio (Sample over unstained MFIs) [1]: 16 | Raw MFI [1]: 1420 MFI | Binding Ratio (Sample over unstained MFIs) [2]: 1 | Raw MFI [2]: 172 MFI | Binding Ratio (Sample over unstained MFIs) [3]: 90 | Raw MFI [3]: 13500 MFI
B13: H4H12884P (antibody, human IgG4 S228P, kappa, V domains shown)
VH: QVQLQESGPGLVKPSQTLSLTCTVSGGSISSGGYYWSWIRQHPGKGLEWIGFIYYSGKTYYNPSLKSRLTISVDTSKSQFSLKLRSVTAADTAVYYCARLGYTNSAGWFDPWGQGTLVTVSS
VL: DIQMTQSPSSLSASVGDRVTITCRASQSISSYLNWYQQKPGKAPNLLIYAASSLQSGVPSRFSGSGSGTDFTLTISSLQPEDLATYYCQQSYTTPFTFGPGTKVDIKR
notes: as for B1

Binding Ratio (Sample over unstained MFIs) [1]: 6 | Raw MFI [1]: 500 MFI | Binding Ratio (Sample over unstained MFIs) [2]: 1 | Raw MFI [2]: 170 MFI | Binding Ratio (Sample over unstained MFIs) [3]: 30 | Raw MFI [3]: 4570 MFI
B14: H4H12890P (antibody, human IgG4 S228P, kappa, V domains shown)
VH: EVQLVESGGGLVQPGGSLRLSCAASGFTFNNYAMHWVRQAPGKGLEYVSSISSSGGSTYYEDSVKGRFTISRDNSKNTLYLQMGSLRAEDMAVYYCARSFYGSGTYYDTFDMWGQGTMVTVSS
VL: B13 VL with V15I, S31R, N45K, G64A, L83F, T93S, P100Q, V104L, D105E
notes: as for B1
